Data set [1] concerns the target T1, SALL4 ZFC4 WT (Mus musculus, UniProt Q8BX22 870-940).
T1 sequence: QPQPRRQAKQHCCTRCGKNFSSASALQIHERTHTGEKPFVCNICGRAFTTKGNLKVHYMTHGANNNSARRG
As to the kind of experiment: EMSA; apparent; patient mutation dataset; poly(dI-dC); EMSA: 68.1 nM DY681-dsDNA, 20 mM HEPES pH 7.5, 150 mM K acetate, 5 mM Mg acetate, 10 ng/ul poly(dI-dC), 30 min on ice; 4% native PAGE, 0.5x TBE, 4 C. The conditions noted are these: protein: recombinant; tags: His6-GST removed with 3C protease; GPDS scar at N-terminus; label: DY681. For orientation: In EMSA bound probe runs differently from free probe, usually more slowly.

The target in data set [2] is T1, SALL4 ZFC4 WT. The data set can be described thus: EMSA; apparent; major groove mutant dataset; poly(dI-dC); EMSA: 68.1 nM DY681-dsDNA, 20 mM HEPES pH 7.5, 150 mM K acetate, 5 mM Mg acetate, 10 ng/ul poly(dI-dC), 30 min on ice; 4% native PAGE, 0.5x TBE, 4 C. The conditions noted are these: protein: recombinant; tags: His6-GST removed with 3C protease; GPDS scar at N-terminus; label: DY681.

Data set [3] concerns the target T1, SALL4 ZFC4 WT. As to the kind of experiment: EMSA; EMSA: 20 mM HEPES pH 7.5, 150 mM K acetate, 5 mM Mg acetate, 10 ng/ul poly(dI-dC), 68.1 nM DNA, on ice 30 min, gel at 4 C. HT-SELEX: 10 mM Tris-HCl pH 7.5, 50 m. To be noted: protein: recombinant; tags: His6-GST removed with 3C protease; GPDS scar at N-terminus; label: DY681.
In the next data set the target is T2, SALL4 ZFC4 I897S (Mus musculus, UniProt Q8BX22 870-940, I897S).
T2 sequence: T1 sequence with I28S
Described as above. The conditions noted are these: protein: recombinant; tags: His6-GST removed with 3C protease; label: DY681.

The target in another data set is T3, SALL4 ZFC4 R900W (Mus musculus, UniProt Q8BX22 870-940, R900W).
T3 sequence: T1 sequence with R31W
The description is as above. The conditions noted are these: protein: recombinant; tags: His6-GST removed with 3C protease; label: DY681.

For the next data set, the target named is T4, SALL4 ZFC4 I897S+V925S (Mus musculus, UniProt Q8BX22 870-940, I897S;V925S).
T4 sequence: T1 sequence with I28S, V56S
Described as above. To be noted: protein: recombinant; tags: His6-GST removed with 3C protease; label: DY681.

The target in data set [4] is T1, SALL4 ZFC4 WT. As to the kind of experiment: X-ray crystallography 2.76 A; Zn2+; 4 ZFC4 and 4 dsDNA per asymmetric unit, unevenly distributed; 50 mM MES pH 6.0, 20% PEG 3350, 60 mM MgCl2; EMSA: 68.1 nM DY681-dsDNA, 20 mM HEPES pH 7.5, 150 mM K acetate, 5 mM Mg acetate, 10 ng/ul poly(dI-dC), 30 min on ice; 4% native PAGE, 0.5x TBE, 4 C. To be noted: protein: recombinant; tags: His6-GST removed with 3C protease; GPDS scar at N-terminus; blunt; self-complementary, 2 copies of strand.

Positions count from the first letter of the chain named.

B1: EMSA AT-rich probe (dsDNA)
DNA 1: AAAAAATATTAAAAA
DNA 2: TTTTTAATATTTTTT
Take B1: the Kd worked out at 0.472 µM in the data set with SALL4 ZFC4 WT [1]; 0.76 µM with SALL4 ZFC4 WT [2]; 0.615 ± 0.205 µM with SALL4 ZFC4 WT [3]; 4.8 µM in the data set with SALL4 ZFC4 I897S; 23 µM with SALL4 ZFC4 R900W; 5.1 µM in the data set with SALL4 ZFC4 I897S+V925S.

B2: palindromic AT-rich crystallisation DNA (dsDNA)
DNA 1: GATATTAATATC
DNA 2: GATATTAATATC
For the molecule B2, the binding result with SALL4 ZFC4 WT [4] is reported as “binds”.

Values taken from publication PMC9838217, “Structure of SALL4 zinc finger domain reveals link between AT-rich DNA binding and Okihiro syndrome”.
